# Test results reported in the nanobody polyreactivity screen of Harvey et al. (2022).
# Assay: yeast display, Sf9 membrane polyspecificity reagent, FACS + sequencing; frameworks hold sequencing errors
# Procedure, shortened: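 Using colony PCR, genes from sorted yeast display clones were amplified, then sequenced on MiSeq at 2 × 250 and filtered by CDR length. The clones had been stained with 10% biotinylated, detergent-solubilized Sf9 membrane reagent for 1 hour at 4 °C and sorted by FACS into low and high (top ~1%) gates on anti-HA and streptavidin fluorescence. Polyreactivity labels come from the gate of origin.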
row,Sequence,polyreactivity (PSR sort gate)
1,QVQLVESGGGLVQAGGSLRLSCAASGRIFGLYAMGWYRQAPGKERELVARITRGGSTYADSVKGRFTISRDNAKNSVYLQMNSLKPEDTAVYYCNAEWIVRNSGDYEYWGQGTQVTVSS,high polyreactivity
2,QVQLVESGGGLVQAGGSLRLSCAASGRIFGNNAMGWYRQAPGKVRELVAAIRSRGTRTYYADSVKGRFTISRDNAKNTVNLQMNSLKPEDPAVYYCATTSLTGLYDRYDYWGQGTQVTVSS,high polyreactivity
3,QVQLVESGGGLVQAGGSLRLSCAASGRIFGNTAMGWYRQAPGKERELVAAIRSRGTRTYYADSVKGRFTISRDNAKNTVYLQMNSLKPEDTAVYYCATTSLTGRYDRYDYWGQGTQVTVSS,high polyreactivity
4,QVQLVESGGGLVQAGGSLRLSCAASGRIFGNYAMGWYRQAPGKERELVAAISGGGSTYYADSVKGRFTISRDKAKNTVYLQMNSLKPEDTAVYYCAARFLWSVFGRKGGYWGQGTQVTVSS,low polyreactivity
5,QVQLVESGGGLVQAGGSLRLSCAASGRIFGNYAMGWYRQAPGKERELVASISRRGGSTYYADSVKGRFTISRDNAKNTVYLQMIRLKPEDTAVYYCATLRGRLRFGYDYWGQGTQVTVSS,high polyreactivity
6,QVQLVESGGGLVQAGGSLRLSCAASGRIFGNYYKVWFRQAPGKERDLVAAISGGGSTYYADSVKGRFTISRDNAKNTVYLQMNSLKPEDTGVYYCAARFLWSVFGRKGGYWGQGTQVTVSS,low polyreactivity
7,QVQLVESGGGLVQAGGSLRLSCAASGRIFGPYAMGWSRQAPGKERELVATITWRTGSTYYADSVKGRFTISRDNAKNTVYLQMNSLKPEDTEVYYSAARYGRYSKAGDYWGQGTQVTVSS,high polyreactivity
8,QVQLVESGGGLVQAGGSLRLSCAASGRIFGPYAMGWYRQAPGKERELVAAISFSGSGTYYADSVKGRFTISRDNAKNTVYFQMNSLKPEDTAVYYCAATSRKIVAYDHDYWGQGTQVTVSS,low polyreactivity
9,QVQLVESGGGLVQAGGSLRLSCAASGRIFGPYAMGWYRQAPGKERELVAAITRGGSTSYADSVKGRFTISRDNAKNTVDLQMISLKTEDTAVDYCAADTLRWWYGFDYWGQGTQVTVSS,low polyreactivity
10,QVQLVESGGGLVQAGGSLRLSCAASGRIFGPYTMGWYRQAPGKERELVAAIRSSGTSTYYADSVKGRFTISRDNAKNTVYLQMNSLKPEDTAVYYCNRARSSSRYDYWGQGTQVTVSS,low polyreactivity
11,QVQLVESGGGLVQAGGSLRLSCAASGRIFGPYVMGWYRQAPGKERDFVAAISRRTGSTYYADSVKGRFTISRDNAKNTVYLQMNSLKPEDTAVYYCAATYYFSHVVGYGYWGQGTQVTVSS,high polyreactivity
12,QVQLVESGGGLVQAGGSLRLSCAASGRIFGQNAMGWYRQAPGKERELVASITTSGSSTNYADSVKGRFTISRDNAKNTVYLQMNSLKPEDTAVYYCAADYVSPDPDELHDYSGYYYWGQGTQVTVSS,high polyreactivity
13,QVQLVESGGGLVQAGGSLRLSCAASGRIFGRNAMGWYRQAPGKERELVAAISSGGGRTYYADSVKGRFTISRDNAKNTVYLQMNSLKPEDTSVYYCAAEDWYEYDYWGQGTQVTVSS,high polyreactivity
14,QVQLVESGGGLVQAGGSLRLSCAASGRIFGRNAMGWYRQAPGKERELVAAISSSGGRTYYADSVKGRFSISRDNAKNTVYLQMMSLKPEDTAVYYCAAVGSLYYYRYDYWGQGTQVTVSS,high polyreactivity
15,QVQLVESGGGLVQAGGSLRLSCAASGRIFGRNAMGWYRQAPGKERELVAAISSSGRTYYADSVKGRFTISRDNAKNTVYLQMNSLKPEDTAVYYCAAYGYSWGQGTQVTVSS,high polyreactivity
16,QVQLVESGGGLVQAGGSLRLSCAASGRIFGRNAMGWYRQAPGKERELVASITSGGGTNYADSVKGRFTISRDNAKNTVYLQMNCLKPEDTAVYYCAAKRHLEGYSGSIGRYYYWGQGTQVTVSS,low polyreactivity

row,Sequence,polyreactivity (PSR sort gate)
1,QVQLVESGGGLVQAGGSLRLSCAASGRIFGRNTMGWYRQAPGKERELVAAISYSAGSTYYADSVKGRFTISRDNAKNTVYLQMNSLKPEDTAVYYCAAGYIRTTYRTNRYGYWGQGTQVTVSS,high polyreactivity
2,QVQLVESGGGLVQAGGSLRLSCAASGRIFGRYAMGGSRQAPGKERELVAAITSSGGNTYYADSVKGRFTISRDNAKNTVYLQMNSLKPEDTAVYYCNALSARSRLQSDYWGQGTQVTVSS,high polyreactivity
3,QVQLVESGGGLVQAGGSLRLSCAASGRIFGRYAMGWYRPAPGKEREFVAAISKRGGGTYYADSVKGRFTISRDNAKNTVYLQMNSLKPEDTAVYYCAVDNSPGFDDYDYWGQGTQVTVSS,high polyreactivity
4,QVQLVESGGGLVQAGGSLRLSCAASGRIFGRYAMGWYRQAPGKEREFVAAISKRGGGTYYADSVKGRFTISRDNAKNTVYLQMISLKPEDTAVYYCAVDNSPGFDDYDYWGQGTQVTVSS,high polyreactivity
5,QVQLVESGGGLVQAGGSLRLSCAASGRIFGRYAMGWYRQAPGKERELVAAISSGGNTYYADSVKGRFTISRDNAKNTVYLQMISLKPEDTAVYYCNALYYRPPGYDYWGQGTQLTVSS,high polyreactivity
6,QVQLVESGGGLVQAGGSLRLSCAASGRIFGRYAMGWYRQAPGKERELVAVISARGARTYYADSVKGRFTISRDNAKNTVYLQRNSLKPEDTAVYYCAVDQYATDDYWGQGTQVTVSS,high polyreactivity
7,QVQLVESGGGLVQAGGSLRLSCAASGRIFGRYAMGWYRQAPGQERELVAGISARGGSTYYADSVKGRFTISRDNAKNTVYLQMNSLKPDDTAVYYCAAYAGFSDQAGYFYWGQGTQVTVSS,high polyreactivity
8,QVQLVESGGGLVQAGGSLRLSCAASGRIFGSNAMGWYRQAPGKERELVAAISWRGASTYYADSVKGRFTISRDNAKNTVYLQMNSLIPEDTAVYYCFLRGRATQWDFGYWGQGTQVTVSS,high polyreactivity
9,QVQLVESGGGLVQAGGSLRLSCAASGRIFGSYAMGWYRQAPGKERELVASISGSGTSTYYADSVKGRFTISRDNAKNTVYLQMNSLKPEDTAVYYCARYVRYYPSKFYYWGQGTQVTVSS,high polyreactivity
10,QVQLVESGGGLVQAGGSLRLSCAASGRIFGSYVMGWYRQAPGKVRELVAAISRRGGSTYYADSVKGRFTISRDNAKNTVYLQMNSLKPEDTAVYYCAAEFSPSSNPYDYWGQGTQVTVSS,high polyreactivity
11,QVQLVESGGGLVQAGGSLRLSCAASGRIFGTNAMGWYRQAPGKERELVAAISRGGNTYYADSVKGRFTISRDNAKNTVYLQMNSLKPEDTAVYYCAARPGSGRSYTSDYWGQGTQVTVSS,high polyreactivity
12,QVQLVESGGGLVQAGGSLRLSCAASGRIFGTNAMGWYRQAPGKERELVAAISRSGGSTYYADSVKGRFTISRDNAKNTVYLQMNSLKPEDTAVYYCATDGRHTYYYWGQGTQVTVST,high polyreactivity
13,QVQLVESGGGLVQAGGSLRLSCAASGRIFGTNAMGWYRQAPRKERELVADITSGGSTNYADSVKGRFTISRDNAKNTVYLQMNSLKPEDTAVYYCAADVIGDLRWYRDEYWGQVTQVTVSS,low polyreactivity
14,QVQLVESGGGLVQAGGSLRLSCAASGRIFGTYAMGWYRQAPGKERELVAAITSSGSTNYADSVKGRFTISRDTAKKTVYLQMNSLKPEDTAVYYCAAVWVVFYYCYTVPVHYEYWGQGTQVTVSS,low polyreactivity
15,QVQLVESGGGLVQAGGSLRLSCAASGRIFGTYTMGWYRQAPGKERELVAAITTGGITNYADSVKGRFTISRDNAKNTVYLQMNSLKPEDTAVYYCNARWDYGAYEYWGQGTQVTVSS,low polyreactivity
16,QVQLVESGGGLVQAGGSLRLSCAASGRIFGVNAMGWYRQAPGKEREFVAVISSVGSTYYADSVKGRFTISRDNAKNTVYLQMKSLKPEDTAVYYCNAVVGRWFPYYLSDYWGQGTQVTVSS,low polyreactivity
